Experiment [1] deals with bovine type I collagen (bovine) (UniProt P02453). As to the kind of experiment: SPR, BIAcore 3000, collagen immobilized on CM5 chip. A general note: In SPR one partner is held on a chip, and binding of the other changes the refractive index at the surface.
Experiment [2] shares this target. As to the kind of experiment: SPR, equilibrium responses, one-site-binding nonlinear regression.
Experiment [3] shares this target. Briefly: SPR, Scatchard analysis of equilibrium responses; SPR, Scatchard analysis.
For experiment [4] the target is unchanged. Briefly: SPR, from the kinetic rates ka and kd; SPR, from ka and kd.
Experiment [5] has the same target.
Experiment [6] has the same target. This is another data set of the same source.

Where two headings read alike, the source gives them in different places.

Sequence of UniProt P02453 (P02453 162-1217 limits assumed, chain 1 of 2): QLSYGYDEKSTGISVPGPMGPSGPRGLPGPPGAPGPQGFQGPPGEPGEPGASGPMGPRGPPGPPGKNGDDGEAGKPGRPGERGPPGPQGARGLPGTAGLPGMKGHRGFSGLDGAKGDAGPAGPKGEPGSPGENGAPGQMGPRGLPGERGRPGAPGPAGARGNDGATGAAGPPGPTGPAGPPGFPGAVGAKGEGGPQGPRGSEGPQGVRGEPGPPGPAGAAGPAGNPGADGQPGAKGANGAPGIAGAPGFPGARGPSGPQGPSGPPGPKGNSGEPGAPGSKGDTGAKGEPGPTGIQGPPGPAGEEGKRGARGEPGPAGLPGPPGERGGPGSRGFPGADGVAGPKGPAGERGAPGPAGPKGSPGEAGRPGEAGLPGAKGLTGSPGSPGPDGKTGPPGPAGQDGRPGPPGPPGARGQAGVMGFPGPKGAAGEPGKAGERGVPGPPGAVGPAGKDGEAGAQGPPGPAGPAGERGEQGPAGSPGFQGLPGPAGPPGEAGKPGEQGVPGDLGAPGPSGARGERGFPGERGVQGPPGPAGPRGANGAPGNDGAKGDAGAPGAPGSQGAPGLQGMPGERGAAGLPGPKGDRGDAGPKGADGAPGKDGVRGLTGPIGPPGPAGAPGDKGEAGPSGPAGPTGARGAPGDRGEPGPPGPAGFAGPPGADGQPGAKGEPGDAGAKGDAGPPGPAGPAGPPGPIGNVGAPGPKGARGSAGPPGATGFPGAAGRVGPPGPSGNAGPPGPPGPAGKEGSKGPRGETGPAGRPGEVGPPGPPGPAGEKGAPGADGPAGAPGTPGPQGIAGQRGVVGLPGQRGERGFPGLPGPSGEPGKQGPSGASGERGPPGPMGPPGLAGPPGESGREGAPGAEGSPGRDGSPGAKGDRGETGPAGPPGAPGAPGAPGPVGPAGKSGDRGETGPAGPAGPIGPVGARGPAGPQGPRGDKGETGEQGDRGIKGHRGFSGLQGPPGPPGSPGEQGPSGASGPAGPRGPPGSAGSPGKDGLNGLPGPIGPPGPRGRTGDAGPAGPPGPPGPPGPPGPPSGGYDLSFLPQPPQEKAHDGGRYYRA
Sequence of UniProt P02453 (P02465 80-1117 limits assumed, chain 2 of 2, further chain): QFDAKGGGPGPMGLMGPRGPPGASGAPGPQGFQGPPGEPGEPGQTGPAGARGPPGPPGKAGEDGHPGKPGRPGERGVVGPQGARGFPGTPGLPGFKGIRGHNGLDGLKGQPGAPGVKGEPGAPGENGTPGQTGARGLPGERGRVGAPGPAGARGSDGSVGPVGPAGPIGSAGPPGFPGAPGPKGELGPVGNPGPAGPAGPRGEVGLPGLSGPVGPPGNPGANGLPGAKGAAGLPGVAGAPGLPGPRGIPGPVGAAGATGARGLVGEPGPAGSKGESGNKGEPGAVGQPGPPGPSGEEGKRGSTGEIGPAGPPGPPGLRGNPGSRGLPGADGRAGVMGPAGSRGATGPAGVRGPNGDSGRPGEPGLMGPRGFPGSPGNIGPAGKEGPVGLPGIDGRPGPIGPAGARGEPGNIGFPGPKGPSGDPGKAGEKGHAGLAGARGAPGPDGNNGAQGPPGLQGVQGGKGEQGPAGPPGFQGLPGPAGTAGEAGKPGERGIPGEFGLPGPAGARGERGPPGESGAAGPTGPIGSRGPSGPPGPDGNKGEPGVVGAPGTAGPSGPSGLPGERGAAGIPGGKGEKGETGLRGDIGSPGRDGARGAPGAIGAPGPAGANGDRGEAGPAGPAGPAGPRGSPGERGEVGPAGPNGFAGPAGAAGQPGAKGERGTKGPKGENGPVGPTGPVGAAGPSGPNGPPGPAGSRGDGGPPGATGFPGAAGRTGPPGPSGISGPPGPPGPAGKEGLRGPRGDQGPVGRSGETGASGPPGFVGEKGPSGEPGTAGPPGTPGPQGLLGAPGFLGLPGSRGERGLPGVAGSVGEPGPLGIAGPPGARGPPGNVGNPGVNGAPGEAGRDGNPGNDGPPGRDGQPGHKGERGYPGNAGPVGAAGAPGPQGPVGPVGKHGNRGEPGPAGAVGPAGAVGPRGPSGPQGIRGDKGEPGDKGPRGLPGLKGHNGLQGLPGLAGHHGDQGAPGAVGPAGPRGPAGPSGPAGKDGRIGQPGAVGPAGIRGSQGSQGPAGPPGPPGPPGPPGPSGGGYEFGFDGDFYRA

Regarding “rBA0871A, recombinant His-tag fusion protein of the A region (amino acid residues 42-765) of BA0871”, in experiment [1], the koff (commonly the first-order rate constant of dissociation) was 0.0043 s⁻¹. Besides, in experiment [1], the kon (in general, the second-order rate constant of association) worked out at 2800 M⁻¹ s⁻¹. Besides, the Kd (as a rule, the free concentration of one partner at which half of the binding sites on the other are occupied at equilibrium, for simple one-to-one binding) in experiment [2] stood at 3200 nM; in experiment [3] it was 2400 nM; in experiment [4], 1600 nM; in experiment [5], 190 nM.
In the case of “rBA5258A, recombinant His-tag fusion protein of the A region (amino acid residues 32-366) of BA5258”, the results for the Kd in experiment [2], in experiment [6] and in experiment [5] were 900 nM, 600 nM and 30 nM, respectively.
